Experimental data taken from patent publication US20200024358A1 (published 2020).

B1: CDR1-008 (bispecific antibody)
scFv: DIVLTQSPASLAMSLGKRATISCRASESVSVIGAHLIHWYQQKPGQPPKLLIYLASNLETGVPARFSGSGSGTDFTLTIDPVEEDDVAIYSCLQSRIFPRTFGGGTKLEIKGGGGSGGGGSGGGGSGGGGSQIQLVQSGPELKKPGETVKISCKASGYTFTDYSINWVKRAPGKGLKWMGWINTETREPAYAYDFRGRFAFSLETSASTAYLQINNLKYEDTATYFCALDYSYAMDYWGQGTSVTVSSGGGGSAVVTQEPSLTVSPGGTVTLTCGSSTGAVTTSNYANWVQQKPGKSPRGLIGGTNKRAPGVPARFSGSLLGGKAALTISGAQPEDEADYYCALWYSNHWVFGGGTKLTVLGGGGGSGGGGSGGGGSGGGGSEVQLVESGGGSVQPGGSLRLSCAASGFTFSTYAMNWVRQAPGKGLEWVGRIRSKANNYATYYADSVKGRFTISRDDSKNTLYLQMNSLRAEDTATYYCVRHGNFGDSYVSWFAYWGQGTTVTVSS
notes: also called bispecific tandem scFv BCMA/CD3; scFv BCMA/scFv CD3 BiTE
B2: CDR1-056 (other)
chain: AVVTQEPSLTVSPGGTVTLTCGSSTGAVTTSNYANWVQQKPGKSPRGLIGGTNKRAPGVPARFSGSLLGGKAALTISGAQPEDEADYYCALWYSNHWVFGGGTKLTVLGGGGGSGGGGSGGGGSGGGGSEVQLVESGGGSVQPGGSLRLSCAASGFTFSTYAMNWVRQAPGKGLEWVGRIRSKANNYATYYADSVKGRFTISRDDSKNTLYLQMNSLRAEDTATYYCVRHGNFGDSYVSWFAYWGQGTTVTVSSGGGGSQVQLVESGGGLVQPGGSLRLSCAASGKMSSRRCMAWFRQAPGKGLERVAKLLTTSGSTYLADSVKGRFTISRDNSKNTVYLQMNSLRAEDTAVYYCAADSFEDPTCTLVTSSGAFQYWGQGTLVTVSSGGGGSQVQLVESGGGLVQPGGSLRLSCAASGFTLDYYAIGWFRQAPGKEREGVSCISRSDGSTYYADSVKGRFTISRDNAKNTVYLQMNSLKPEDTAVYYCAAAGADCSGYLRDYEFWGQGTLVTVSS
notes: Trispecific tandem scFv-sdAb-sdAb on one chain; also called CDR-056
B3: CDR1-048 (other)
heavy: EVQLVESGGGSVQPGGSLRLSCAASGFTFSTYAMNWVRQAPGKGLEWVGRIRSKANNYATYYADSVKGRFTISRDDSKNTLYLQMNSLRAEDTATYYCVRHGNFGDSYVSWFAYWGQGTTVTVSSASTKGPSVFPLAPSSKSTSGGTAALGCLVKDYFPEPVTVSWNSGALTSGVHTFPAVLQSSGLYSLSSVVTVPSSSLGTQTYICNVNHKPSNTKVDKRVEPKSCGGGGSDIVLTQSPASLAMSLGKRATISCRASESVSVIGAHLIHWYQQKPGQPPKLLIYLASNLETGVPARFSGSGSGTDFTLTIDPVEEDDVAIYSCLQSRIFPRTFGGGTKLEIKGGGGSGGGGSGGGGSGGGGSQIQLVQSGPELKKPGETVKISCKASGYTFTDYSINWVKRAPGKGLKWMGWINTETREPAYAYDFRGRFAFSLETSASTAYLQINNLKYEDTATYFCALDYSYAMDYWGQGTSVTVSS
light: AVVTQEPSLTVSPGGTVTLTCGSSTGAVTTSNYANWVQQKPGKSPRGLIGGTNKRAPGVPARFSGSLLGGKAALTISGAQPEDEADYYCALWYSNHWVFGGGTKLTVLGTVAAPSVFIFPPSDEQLKSGTASVVCLLNNFYPREAKVQWKVDNALQSGNSQESVTEQDSKDSTYSLSSTLTLSKADYEKHKVYACEVTHQGLSSPVTKSFNRGECGGGGSEIVMTQSPSTLSASVGDRVIITCQASEDIYSLLAWYQQKPGKAPKLLIYDASDLASGVPSRFSGSGSGAEFTLTISSLQPDDSATYYCQGNYGSSSSSSYGAVFGQGTKLTVLGGGGGSGGGGSGGGGSGGGGSEVQLVESGGGSVQPGGSLRLSCTVSGIDLSSYTMGWVRQAPGKGLEWVGIISSGGRTYYASWAKGRFTISRDTSKNTVYLQMNSLRAEDTATYYCARGRYTGYPYYFALWGQGTTVTVSS
notes: Trispecific Fab-scFv: anti-CD3 Fab, anti-BCMA scFv on the Fd, anti-PD-L1 scFv on the light chain
B4: CDR1-049 (other)
heavy: EVQLVESGGGSVQPGGSLRLSCTVSGIDLSSYTMGWVRQAPGKGLEWVGIISSGGRTYYASWAKGRFTISRDTSKNTVYLQMNSLRAEDTATYYCARGRYTGYPYYFALWGQGTTVTVSSASTKGPSVFPLAPSSKSTSGGTAALGCLVKDYFPEPVTVSWNSGALTSGVHTFPAVLQSSGLYSLSSVVTVPSSSLGTQTYICNVNHKPSNTKVDKRVEPKSCGGGGSAVVTQEPSLTVSPGGTVTLTCGSSTGAVTTSNYANWVQQKPGKSPRGLIGGTNKRAPGVPARFSGSLLGGKAALTISGAQPEDEADYYCALWYSNHWVFGGGTKLTVLGGGGGSGGGGSGGGGSGGGGSEVQLVESGGGSVQPGGSLRLSCAASGFTFSTYAMNWVRQAPGKGLEWVGRIRSKANNYATYYADSVKGRFTISRDDSKNTLYLQMNSLRAEDTATYYCVRHGNFGDSYVSWFAYWGQGTTVTVSS
light: EIVMTQSPSTLSASVGDRVIITCQASEDIYSLLAWYQQKPGKAPKLLIYDASDLASGVPSRFSGSGSGAEFTLTISSLQPDDSATYYCQGNYGSSSSSSYGAVFGQGTKLTVLGTVAAPSVFIFPPSDEQLKSGTASVVCLLNNFYPREAKVQWKVDNALQSGNSQESVTEQDSKDSTYSLSSTLTLSKADYEKHKVYACEVTHQGLSSPVTKSFNRGECGGGGSDIVLTQSPASLAMSLGKRATISCRASESVSVIGAHLIHWYQQKPGQPPKLLIYLASNLETGVPARFSGSGSGTDFTLTIDPVEEDDVAIYSCLQSRIFPRTFGGGTKLEIKGGGGSGGGGSGGGGSGGGGSQIQLVQSGPELKKPGETVKISCKASGYTFTDYSINWVKRAPGKGLKWMGWINTETREPAYAYDFRGRFAFSLETSASTAYLQINNLKYEDTATYFCALDYSYAMDYWGQGTSVTVSS
notes: Trispecific Fab-scFv: anti-PD-L1 Fab, anti-CD3 scFv on the Fd, anti-BCMA scFv on the light chain
B5: CDR1-011 (other)
heavy: QIQLVQSGPELKKPGETVKISCKASGYTFTDYSINWVKRAPGKGLKWMGWINTETREPAYAYDFRGRFAFSLETSASTAYLQINNLKYEDTATYFCALDYSYAMDYWGQGTSVTVSSASTKGPSVFPLAPSSKSTSGGTAALGCLVKDYFPEPVTVSWNSGALTSGVHTFPAVLQSSGLYSLSSVVTVPSSSLGTQTYICNVNHKPSNTKVDKRVEPKSCGGGGSEIVMTQSPSTLSASVGDRVIITCQASEDIASLLAWYQQKPGKAPKLLIYDASDLASGVPSRFSGSGSGAEFTLTISSLQPDDSATYYCQGNYGSSSSSSYGAVFGQGTKLTVLGGGGGSGGGGSGGGGSGGGGSEVQLVESGGGSVQPGGSLRLSCTVSGIDLSSYTMGWVRQAPGKGLEWVGIISSGGRTYYASWAKGRFTISRDTSKNTVYLQMNSLRAEDTATYYCARGRYTGYPYYFALWGQGTTVTVSS
light: DIVLTQSPASLAMSLGKRATISCRASESVSVIGAHLIHWYQQKPGQPPKLLIYLASNLETGVPARFSGSGSGTDFTLTIDPVEEDDVAIYSCLQSRIFPRTFGGGTKLEIKRTVAAPSVFIFPPSDEQLKSGTASVVCLLNNFYPREAKVQWKVDNALQSGNSQESVTEQDSKDSTYSLSSTLTLSKADYEKHKVYACEVTHQGLSSPVTKSFNRGECGGGGSAVVTQEPSLTVSPGGTVTLTCGSSTGAVTTSNYANWVQQKPGKSPRGLIGGTNKRAPGVPARFSGSLLGGKAALTISGAQPEDEADYYCALWYSNHWVFGGGTKLTVLGGGGGSGGGGSGGGGSGGGGSEVQLVESGGGSVQPGGSLRLSCAASGFTFSTYAMNWVRQAPGKGLEWVGRIRSKANNYATYYADSVKGRFTISRDDSKNTLYLQMNSLRAEDTATYYCVRHGNFGDSYVSWFAYWGQGTTVTVSS
notes: also called CDR1-0011
B6: CDR1-005 (bispecific antibody)
heavy: QIQLVQSGPELKKPGETVKISCKASGYTFTDYSINWVKRAPGKGLKWMGWINTETREPAYAYDFRGRFAFSLETSASTAYLQINNLKYEDTATYFCALDYSYAMDYWGQGTSVTVSSASTKGPSVFPLAPSSKSTSGGTAALGCLVKDYFPEPVTVSWNSGALTSGVHTFPAVLQSSGLYSLSSVVTVPSSSLGTQTYICNVNHKPSNTKVDKRVEPKSC
light: DIVLTQSPASLAMSLGKRATISCRASESVSVIGAHLIHWYQQKPGQPPKLLIYLASNLETGVPARFSGSGSGTDFTLTIDPVEEDDVAIYSCLQSRIFPRTFGGGTKLEIKRTVAAPSVFIFPPSDEQLKSGTASVVCLLNNFYPREAKVQWKVDNALQSGNSQESVTEQDSKDSTYSLSSTLTLSKADYEKHKVYACEVTHQGLSSPVTKSFNRGECGGGGSAVVTQEPSLTVSPGGTVTLTCGSSTGAVTTSNYANWVQQKPGKSPRGLIGGTNKRAPGVPARFSGSLLGGKAALTISGAQPEDEADYYCALWYSNHWVFGGGTKLTVLGGGGGSGGGGSGGGGSGGGGSEVQLVESGGGSVQPGGSLRLSCAASGFTFSTYAMNWVRQAPGKGLEWVGRIRSKANNYATYYADSVKGRFTISRDDSKNTLYLQMNSLRAEDTATYYCVRHGNFGDSYVSWFAYWGQGTTVTVSS
B7: CDR1-055 (other)
heavy: QIQLVQSGPELKKPGETVKISCKASGYTFTDYSINWVKRAPGKGLKWMGWINTETREPAYAYDFRGRFAFSLETSASTAYLQINNLKYEDTATYFCALDYSYAMDYWGQGTSVTVSSASTKGPSVFPLAPSSKSTSGGTAALGCLVKDYFPEPVTVSWNSGALTSGVHTFPAVLQSSGLYSLSSVVTVPSSSLGTQTYICNVNHKPSNTKVDKRVEPKSCGGGGSQVQLVESGGGLVQPGGSLRLSCAASGKMSSRRCMAWFRQAPGKGLERVAKLLTTSGSTYLADSVKGRFTISRDNSKNTVYLQMNSLRAEDTAVYYCAADSFEDPTCTLVTSSGAFQYWGQGTLVTVSS
light: DIVLTQSPASLAMSLGKRATISCRASESVSVIGAHLIHWYQQKPGQPPKLLIYLASNLETGVPARFSGSGSGTDFTLTIDPVEEDDVAIYSCLQSRIFPRTFGGGTKLEIKRTVAAPSVFIFPPSDEQLKSGTASVVCLLNNFYPREAKVQWKVDNALQSGNSQESVTEQDSKDSTYSLSSTLTLSKADYEKHKVYACEVTHQGLSSPVTKSFNRGECGGGGSAVVTQEPSLTVSPGGTVTLTCGSSTGAVTTSNYANWVQQKPGKSPRGLIGGTNKRAPGVPARFSGSLLGGKAALTISGAQPEDEADYYCALWYSNHWVFGGGTKLTVLGGGGGSGGGGSGGGGSGGGGSEVQLVESGGGSVQPGGSLRLSCAASGFTFSTYAMNWVRQAPGKGLEWVGRIRSKANNYATYYADSVKGRFTISRDDSKNTLYLQMNSLRAEDTATYYCVRHGNFGDSYVSWFAYWGQGTTVTVSS
notes: Trispecific: anti-BCMA Fab, anti-PD-L1 sdAb on the Fd, anti-CD3 scFv on the light chain

Assays:
[1] = target: T1, recombinant human CD3 epsilon His-tag protein (Novoprotein, Cat. No. C578) (human, UniProt P07766 23-126); assay: dual-binding ELISA: BCMA Fc coated, then CD3 epsilon His, anti-His detection
T1 construct: Bought protein; not shown: His-tag
T1 sequence (P07766 23-126): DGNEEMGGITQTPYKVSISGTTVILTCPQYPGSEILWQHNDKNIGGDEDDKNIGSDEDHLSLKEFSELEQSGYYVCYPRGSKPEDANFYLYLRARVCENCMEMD

[2] = target: T2, recombinant Human BCMA Fc Chimera (produced in-house via transient expression in HEK293-6E cells) (human, UniProt Q02223 1-54); assay: as above
T2 construct: not shown: Fc part of the chimera
T2 sequence (looked up): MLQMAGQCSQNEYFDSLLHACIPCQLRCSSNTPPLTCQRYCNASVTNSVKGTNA

[3] = target: T3, recombinant human PD-L1 His-tag protein (expressed after transient transfection in HEK293-6E) (human, UniProt Q9NZQ7 19-238, limits assumed); assay: dual-binding ELISA: BCMA Fc coated, then PD-L1 His, anti-His detection
T3 construct: not shown: His-tag
T3 sequence (Q9NZQ7 19-238 limits assumed): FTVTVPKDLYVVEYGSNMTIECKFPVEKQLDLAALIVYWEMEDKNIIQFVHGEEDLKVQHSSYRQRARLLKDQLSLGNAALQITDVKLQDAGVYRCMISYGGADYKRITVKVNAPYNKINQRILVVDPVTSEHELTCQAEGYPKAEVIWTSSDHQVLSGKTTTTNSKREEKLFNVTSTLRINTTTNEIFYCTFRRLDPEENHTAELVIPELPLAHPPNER

[4] = target: T2, recombinant Human BCMA Fc Chimera …; assay: dual-binding ELISA: BCMA Fc coated, then CD3 epsilon His or PD-L1 His, anti-His detection
Procedure: Trispecific antibody molecules were tested for their ability to bind the different targets using a Dual-Binding ELISA. […] Simultaneous binding to antigen pairs was detected via an anti-His antibody (Abcam, Cat. No. ab1187).

[5] = target: T4, extracellular domain of human PD-L1 (Example 8) (human, UniProt Q9NZQ7 19-238); assay: competition ELISA in solution (Friguet), Scatchard plot
T4 construct: extracellular domain; also called PD-L1 antigen; immobilized PD-L1
T4 sequence (Q9NZQ7 19-238): as the sequence (Q9NZQ7 19-238 limits assumed) above
Procedure: First, mixtures of the trispecific antibody (Ab) at a fixed concentration and the PD-L1 antigen (Ag) at varying concentrations were incubated for sufficient time to reach equilibrium. Then the concentration of trispecific antibody, which remained unsaturated at equilibrium (not associated with PD-L1 antigen), was measured by a classical indirect ELISA using PD-L1 coated plates. […] The Kd was calculated from a Scatchard plot using the following equation:

| Binder | binding result [1] | binding result [2] | binding result [3] | binding result [4] | Kd [5] [nM] |
| --- | --- | --- | --- | --- | --- |
| B1 | binds | binds | – | – | – |
| B2 | binds | – | binds | binds | – |
| B3 | binds | – | binds | binds | – |
| B4 | binds | – | binds | binds | – |
| B5 | – | – | – | – | 5 |
| B6 | binds | binds | – | – | – |
| B7 | binds | – | binds | binds | – |
